One molecule from patent US20120108504A1 (TEMPLE UNIVERSITY OF THE COMMONWEALTH SYSTEM OF HIGHER …, published 2012) can be followed below.

The target of the experiment is T1, leptin receptor (ObR) (human, UniProt P48357 22-1165).
T1 sequence: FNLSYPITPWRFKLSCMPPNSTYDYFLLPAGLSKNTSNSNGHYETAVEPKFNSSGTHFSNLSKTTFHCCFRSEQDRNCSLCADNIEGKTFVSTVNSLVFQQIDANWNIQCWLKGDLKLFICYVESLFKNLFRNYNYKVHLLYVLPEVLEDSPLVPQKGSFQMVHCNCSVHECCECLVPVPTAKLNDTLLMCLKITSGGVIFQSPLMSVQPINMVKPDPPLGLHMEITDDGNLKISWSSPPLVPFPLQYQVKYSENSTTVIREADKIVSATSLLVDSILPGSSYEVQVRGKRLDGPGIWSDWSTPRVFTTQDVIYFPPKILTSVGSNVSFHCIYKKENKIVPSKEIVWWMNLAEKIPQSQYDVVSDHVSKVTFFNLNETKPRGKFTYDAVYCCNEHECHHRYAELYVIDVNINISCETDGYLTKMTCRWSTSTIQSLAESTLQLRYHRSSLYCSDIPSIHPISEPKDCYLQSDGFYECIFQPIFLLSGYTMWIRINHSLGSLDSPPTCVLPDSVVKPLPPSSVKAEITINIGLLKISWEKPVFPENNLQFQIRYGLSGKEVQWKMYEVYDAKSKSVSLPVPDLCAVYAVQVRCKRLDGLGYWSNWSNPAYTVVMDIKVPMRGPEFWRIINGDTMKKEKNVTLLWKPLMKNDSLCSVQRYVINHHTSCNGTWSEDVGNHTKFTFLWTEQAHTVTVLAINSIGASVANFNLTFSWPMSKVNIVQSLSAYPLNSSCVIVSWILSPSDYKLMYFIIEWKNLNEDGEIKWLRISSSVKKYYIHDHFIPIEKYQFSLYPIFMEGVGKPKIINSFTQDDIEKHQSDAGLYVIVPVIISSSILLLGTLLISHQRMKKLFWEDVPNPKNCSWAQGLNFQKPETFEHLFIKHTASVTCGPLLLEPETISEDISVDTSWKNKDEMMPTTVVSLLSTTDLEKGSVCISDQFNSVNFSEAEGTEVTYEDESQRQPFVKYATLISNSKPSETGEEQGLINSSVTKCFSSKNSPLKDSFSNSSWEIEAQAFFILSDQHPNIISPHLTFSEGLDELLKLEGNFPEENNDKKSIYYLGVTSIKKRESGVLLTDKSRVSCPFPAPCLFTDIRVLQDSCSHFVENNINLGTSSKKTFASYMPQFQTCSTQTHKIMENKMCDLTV
The experiment can be described thus: cell-based or functional assay.

Non-standard residues stand in square brackets, D forms with d. No end group written: not given here. *: point of attachment. αGalNAc = CC(=O)N[C@@H]1[C@@H](O)[C@@H](O)[C@@H](CO)O[C@@H]1*; Tyr(3,5-I2) = N[C@@H](Cc1cc(I)c(O)c(I)c1)C(=O)O; Ahx = NCCCCCC(=O)O Where only a bound is given, the exact number is not on record here.

As to [Tyr(3,5-I2)]ST(αGalNAc)EVVALSR[Ahx]-NH2 [Compound (1) [Tyr(I2)-Ser-Thr(α-GalNAc)-Glu-Val-Val-Ala-Leu-Ser-Arg-AcpNH2]], the “EC50 (nM), proliferation of ObR-positive LN229 glioblastoma cells, no exogenous leptin” value was under 1 nM and the “IC50 (nM), inhibition of leptin-induced (12 nM leptin) proliferation of ObR-positive LN229 cells” value was found to be 100 nM.
